# ± gives the half width of the 95% confidence interval.
# Assay: folding stability dG unfold from chymotrypsin proteolysis; higher = more stable
# How it was run: (§1)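 Sequencing followed digestion of designed mini-proteins with trypsin and chymotrypsin, each at 11 concentrations in threefold dilutions together with a no-protease condition. The mini-proteins were under 80 residues, had no cysteine, sat in a PA-tagged cDNA display construct, and were kept only if AlphaFold2 dimer inter-PAE was above 15. From the counts, Bayesian fitting gave K50, and unfolding free energy was derived against a sequence-predicted unfolded-state K50 and a shared folded-state K50, per protease or combined.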
row,Sequence,folding stability dG unfold [kcal/mol]
1,SPAAELARRLFEELGLEAELVSVDPERRRVTFRVRHPDRAPLLLEVVYDPERPVFAIALNPETGRAVVPVSA [r9_1119_TrMRF],3.11 ± 0.036
2,SAGGSAGGSAGGSKDITITHEHNPNGWYRVKIRFPDNGKKIEIWVPAGRSVEEALDWLFSAGGSAGGSAGGS [r4_393_TrROS],3.2 ± 0.038
3,SAGGSGKVIGFSFEVETPEEAEGLFKENRPDLDVKILEVKPEEGYVRLVAVDPDGKPHVFVVPIVGSAGGSA [r2_201_TrMRF],1.34 ± 0.1
4,SAGGMLTLIDPETGEPFLTTPIATFTVPVTLTGPDGKPLETRTLRITLFRAYRPDGSPALILLVSPESAGGS [r8_214_TrMRF],4.73 ± 0.061
5,SMVIEINEDGTVKVYLPEELKGLSAEEIEELIKKLFGPNVKIEKIEIFEPPPKLTEEEKEELKKLPKEEKSA [r9_1011_TrROS_Hall],1.76 ± 0.14
6,SAGGSAGGSAGGIEKFLEKHPELKIKKEIKIKIPYKTKDGKEFEVEYKIFYLTSEDEEDSAGGSAGGSAGGS [r10_0_TrMRF],2.74 ± 0.057
7,SAGGSAGGRLLLVKITLPDGEEITIVLEFESEEEARAAAEALLPPGAKVEVRELSEEELEALLKSAGGSAGG [r6_267_TrROS_Hall],3.37 ± 0.044
8,SAGPVLYRVTITVEVSSSGEKGKTLTLEFLVPPSVSGEEVRDRVLALLKAQGYKVEKITVTVTPLPSSASAG [r14_979_JUSTAS],5.36 ± 0.13
9,SAGGSAGGELEELPGLKVVAVFELPGNRRLVLFEAEGGRYLLLVEGEGTRLVPVPEDVSLEELASAGGSAGG [r6_680_TrMRF],3.394 ± 0.031
10,SMYYYGKFTFTNPTGGPTIGDVYIITKSKEEAEALAKEEASKKNVKVEIEIKEIPESEYENPEKVKELLSSA [r9_864_JUSTAS],1.02 ± 0.19
11,SAGGSATSIEYESPGVVETVSFTREPDGTLTVTVTVREPNGPVLKTLPTTETLPPDAGVTASVPLPSAGGSA [r15_950_JUSTAS],0.921 ± 0.13
12,SAGGSIVDRIRKILKEYGYTAQVERNGDGITIVVQFNKEQRKKIVSEIQEDFGYPIKIEVMPPGQELSAGGS [r16_514_TrROS],1.94 ± 0.027
13,SAGGSAGGSGNSKLTATLTLEFYDPKTGKKIAKIELKPVITTLPNGTAKIDVEYKITFTNEDDSAGGSAGGS [r12_629_TrMRF],3.74 ± 0.11
14,SAGVVEELLKEFPDVEKVTSSSYPGPKVSQYVIYFPTPSGKKVTIKITVTQPRLPSNSTTSELSIELNDSAG [r5_398_JUSTAS],2.25 ± 0.12
15,SAGGMRIRIVVPPEMSPEEIAELLKKLFPDYEIKVEVKTVKVKVKDEETGEEYEVEVLVVEIEIKEKSAGGS [r16_828_TrROS_Hall],3.78 ± 0.12
16,SAGGSAGGSARTLTLTFLTDSPEVAERFVRELREQKPLRVEASYRRLPDGRYLVTVTIHLDSAGGSAGGSAG [r3_273_TrMRF],5.14 ± 0.14
17,SAGGSAMTVTKVGSETKTDPAKGIVTTTEITKLPTGGLTKTVTTTTIEGGKVKSSTTTTTAIPVGTSAGGSA [r15_283_JUSTAS],0.266 ± 0.065
18,SGMPPVSFANLELVAVSPDGTVTVVRAELTGPDGERYVWTGSLSELLKRLEEEDLTLDNFKEGGLIVAVDSA [r9_1078_TrMRF],3.75 ± 0.039
19,SAGGSAGGSAGGKMRLYRFNLKTNKIEEVEAEPGEVIKITFPGKEIVLVVKDGKIELIPSAGGSAGGSAGGS [r10_817_TrROS_Hall],1.2 ± 0.22
20,MNIPLKEILDKAKAEGKPVVFPDGTKTLSFEPGGKATIEKPVEVPGKPGVPLETKTYTIDINEDGSVTVNDS [r1_284_JUSTAS],-0.279 ± 0.15
21,SAGKPGKTIKVTVPIPDSVKNAKIIVEYPNGKSKTITVPAGKNVTITFKVPGSSSVKVRVVLDDGSVIGSAG [r5_664_TrMRF],2.45 ± 0.046

# Assay: folding stability dG unfold (combined trypsin and chymotrypsin); higher = more stable
# How it was run: as §1
row,Sequence,folding stability dG unfold [kcal/mol]
1,SAGGSAGGSAKMIFVKNEDGTITMFTLNEDGYLTVTTVTLDKKTKKMTVETKTIKLTDPELLSAGGSAGGSA [r18_503_TrROS_Hall],2.14 ± 0.17
2,SAGGPKTIMAMIPRDSPELRKALKWLEKAPPGEEVELKLPGKPIRITNIQPVDDWWMFSVKIPPGLKSAGGS [r16_404_TrROS],0.885 ± 0.19
3,SAGGSAGGSAGKAKIVKIEKVKNKNGETYYIIKLEGKKEIFVIKDKNGKKKKIPLKELKPSAGGSAGGSAGG [r17_286_TrROS_Hall],2.11 ± 0.048
4,SAGGSAGGSMEELPEGAELIREEDGVAVVRNENGELLVVRRVDGKLEVRRFPPGMSIEEALAKSAGGSAGGS [r12_605_TrROS_Hall],3.05 ± 0.045
5,SAGGLENLENFELVETLTVKLPNGDKPVTLTLYRHPDGPAENVTSYEGKKYVFVVTDDSIEFFEGGTSAGGS [r16_711_TrMRF],0.81 ± 0.15
6,SAGGSMSTSTLVRREIASVDPETGLRVVRVEVEEVDYGFDPKTGTVLGVSPVSPVSESVLLLPADAPPESAG [r5_903_JUSTAS],-0.286 ± 0.23
7,SAGGSFWVFVIEISVKFEQYGDPDGNWKFEIEKVDVKITEIIPIPPEMMDKLREAKAEGMEPEEILSAGGSA [r2_327_TrROS],3.09 ± 0.39
8,SAGGSAGGSAGGMVELDPENGTLTVLVEVDGELYKVTIKFNPETNEIVSIEVEKLPELEESAGGSAGGSAGG [r7_343_TrROS_Hall],3.66 ± 0.42
9,SAGGSAGGSAKPTYRVLVKNEDGEVLEAEVKVVDGKVEVTVNGKVYTFPKGAKIEIVKIEPVSAGGSAGGSA [r18_144_TrROS_Hall],3.08 ± 0.11
10,SAGGSAGGSAGGSGVLNIDEVWEDPESDLYTVVTTGEDEGTRVFVFDKNGKLLAEADLPSAGGSAGGSAGGS [r4_259_TrMRF],0.443 ± 0.1
11,SAGPVVLSPDDTVKIGKKELTFFSDGTVSVKYPDGTGESITVTVDPSSGNITLTETFTEPETGTTPVENSAG [r5_33_JUSTAS],1.17 ± 0.16
12,SAGGSAGGSASMKKKKFVVKTEEEAEKVIAELKAKVPKGTEVEIYIKNEDGTLEKYAIIKISAGGSAGGSAG [r3_92_JUSTAS],3.13 ± 0.15
13,SAGGMVNLRLYNPATGEPIDFPVPKDVVEEMLKNGDLAALEALFPGFPIAKVEVDEGEEVPAVPPDEASAGG [r13_629_TrMRF],0.462 ± 0.14
14,SAGGSAGGSEIKIEKAEITVEYDEETGVFRATITLPDGYRITAEFRLRPDGSLELTRVEIEEVSAGGSAGGS [r12_111_TrROS_Hall],5.29 ± 0.25
15,SAGGSAGGPLKVELVKAEILPGNKIIRVYRAELPTETYLAVIELHLNPDGEILSAKIKVYPLPESAGGSAGG [r6_19_TrMRF],3.06 ± 0.14
16,SEEVEIEIRIRVEVDSLEEARALAEALEELGFEVEVKVVERDGKLVVEVTIRIRVPAPPPPPLSEEELKASA [r9_863_TrROS_Hall],2.17 ± 0.19
17,SAGGSAGGSAGGTITIPIYLDDKWITITRIELSPPDGKIKIEFTFNNRPREFDIPIPPGASAGGSAGGSAGG [r7_477_TrROS],2.36 ± 0.11
18,SAGGSAGGSAGGGSVTIRVESPEEAVATAKELLEKLTGAKPEATPLNVVVEEPDGVATVESAGGSAGGSAGG [r7_387_JUSTAS],0.378 ± 0.13
19,SAGGSAMTIEKREDGYLVITVDVPPGTSPEELAERLKKLFPNEEVTVTVVKDGKLVKEFVIKAEDLSAGGSA [r15_1047_TrROS_Hall],2.2 ± 0.071
20,SAGGSAGGSAGAGKVVFEVDIKTFLGKRKDGSDAPKTIIEIKVFDIAPLDPNDPVLKALISAGGSAGGSAGG [r11_236_TrMRF],3.26 ± 0.22
21,SAGGSAGGSAGGMEYSISNVTTETFPEGNKTVTVETYTFDDGGTITVTKENGKVLEVNPKSAGGSAGGSAGG [r7_552_JUSTAS],0.135 ± 0.11

row,Sequence,folding stability dG unfold [kcal/mol]
1,SPAAELARRLFEELGLEAELVSVDPERRRVTFRVRHPDRAPLLLEVVYDPERPVFAIALNPETGRAVVPVSA [r9_1119_TrMRF],2.73 ± 0.1
2,SAGGSAGGSAGGSKDITITHEHNPNGWYRVKIRFPDNGKKIEIWVPAGRSVEEALDWLFSAGGSAGGSAGGS [r4_393_TrROS],3.25 ± 0.12
3,SAGGSGKVIGFSFEVETPEEAEGLFKENRPDLDVKILEVKPEEGYVRLVAVDPDGKPHVFVVPIVGSAGGSA [r2_201_TrMRF],1.11 ± 0.091
4,SAGGMLTLIDPETGEPFLTTPIATFTVPVTLTGPDGKPLETRTLRITLFRAYRPDGSPALILLVSPESAGGS [r8_214_TrMRF],4.3 ± 0.052
5,SMVIEINEDGTVKVYLPEELKGLSAEEIEELIKKLFGPNVKIEKIEIFEPPPKLTEEEKEELKKLPKEEKSA [r9_1011_TrROS_Hall],1.41 ± 0.33
6,SAGGSAGGSAGGIEKFLEKHPELKIKKEIKIKIPYKTKDGKEFEVEYKIFYLTSEDEEDSAGGSAGGSAGGS [r10_0_TrMRF],2.36 ± 0.07
7,SAGGSAGGRLLLVKITLPDGEEITIVLEFESEEEARAAAEALLPPGAKVEVRELSEEELEALLKSAGGSAGG [r6_267_TrROS_Hall],3.31 ± 0.052
8,SAGPVLYRVTITVEVSSSGEKGKTLTLEFLVPPSVSGEEVRDRVLALLKAQGYKVEKITVTVTPLPSSASAG [r14_979_JUSTAS],5.27 ± 0.14
9,SAGGSAGGELEELPGLKVVAVFELPGNRRLVLFEAEGGRYLLLVEGEGTRLVPVPEDVSLEELASAGGSAGG [r6_680_TrMRF],3.179 ± 0.03
10,SMYYYGKFTFTNPTGGPTIGDVYIITKSKEEAEALAKEEASKKNVKVEIEIKEIPESEYENPEKVKELLSSA [r9_864_JUSTAS],0.788 ± 0.37
11,SAGGSATSIEYESPGVVETVSFTREPDGTLTVTVTVREPNGPVLKTLPTTETLPPDAGVTASVPLPSAGGSA [r15_950_JUSTAS],0.529 ± 0.18
12,SAGGSIVDRIRKILKEYGYTAQVERNGDGITIVVQFNKEQRKKIVSEIQEDFGYPIKIEVMPPGQELSAGGS [r16_514_TrROS],2.03 ± 0.11
13,SAGGSAGGSGNSKLTATLTLEFYDPKTGKKIAKIELKPVITTLPNGTAKIDVEYKITFTNEDDSAGGSAGGS [r12_629_TrMRF],3.39 ± 0.11
14,SAGVVEELLKEFPDVEKVTSSSYPGPKVSQYVIYFPTPSGKKVTIKITVTQPRLPSNSTTSELSIELNDSAG [r5_398_JUSTAS],2.08 ± 0.38
15,SAGGMRIRIVVPPEMSPEEIAELLKKLFPDYEIKVEVKTVKVKVKDEETGEEYEVEVLVVEIEIKEKSAGGS [r16_828_TrROS_Hall],3.74 ± 0.14
16,SAGGSAGGSARTLTLTFLTDSPEVAERFVRELREQKPLRVEASYRRLPDGRYLVTVTIHLDSAGGSAGGSAG [r3_273_TrMRF],4.64 ± 0.074
17,SAGGSAMTVTKVGSETKTDPAKGIVTTTEITKLPTGGLTKTVTTTTIEGGKVKSSTTTTTAIPVGTSAGGSA [r15_283_JUSTAS],0.104 ± 0.085
18,SGMPPVSFANLELVAVSPDGTVTVVRAELTGPDGERYVWTGSLSELLKRLEEEDLTLDNFKEGGLIVAVDSA [r9_1078_TrMRF],3.44 ± 0.041
19,SAGGSAGGSAGGKMRLYRFNLKTNKIEEVEAEPGEVIKITFPGKEIVLVVKDGKIELIPSAGGSAGGSAGGS [r10_817_TrROS_Hall],0.884 ± 0.21
20,MNIPLKEILDKAKAEGKPVVFPDGTKTLSFEPGGKATIEKPVEVPGKPGVPLETKTYTIDINEDGSVTVNDS [r1_284_JUSTAS],-0.373 ± 0.095
21,SAGKPGKTIKVTVPIPDSVKNAKIIVEYPNGKSKTITVPAGKNVTITFKVPGSSSVKVRVVLDDGSVIGSAG [r5_664_TrMRF],2.69 ± 0.054

# — the supplement of paper PMC12764529
